Biological target: T1, GST-SAP30L (human, UniProt Q9HAJ7 1-183)
T1 sequence (looked up): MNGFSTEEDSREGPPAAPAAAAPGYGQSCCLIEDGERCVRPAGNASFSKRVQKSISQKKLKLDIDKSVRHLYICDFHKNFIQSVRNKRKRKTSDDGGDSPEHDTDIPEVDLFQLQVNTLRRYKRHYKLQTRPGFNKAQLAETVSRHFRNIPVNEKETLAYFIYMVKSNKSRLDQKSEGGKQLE
Assay: pull-down

B1: in vitro translated N-terminally deleted SAP30L (SAP30L 61–183) (domain or fragment, human, UniProt Q9HAJ7 61-183, looked up)
chain: KLDIDKSVRHLYICDFHKNFIQSVRNKRKRKTSDDGGDSPEHDTDIPEVDLFQLQVNTLRRYKRHYKLQTRPGFNKAQLAETVSRHFRNIPVNEKETLAYFIYMVKSNKSRLDQKSEGGKQLE
modifications: 35S-methionine label
- fold change of interaction against full-length SAP30L: > 2 fold
